Legend:
Settings in all cases: Enterobacter cloacae
[1] = substrate: CC(C)(O/N=C(\C(=O)N[C@@H]1C(=O)N2C(C(=O)[O-])=C(C[n+]3ccccc3)CS[C@H]12)c1csc(N)n1)C(=O)O
Description: (§1) Activity of Enterobacter cloacae 4092 AmpC (E2) assessed as drug hydrolysis by spectrophotometry

[2] = substrate: CC1(C)S[C@@H]2[C@H](NC(=O)Cc3ccccc3)C(=O)N2[C@H]1C(=O)O
Description: as §1

[3] = substrate: CO/N=C(\C(=O)N[C@@H]1C(=O)N2C(C(=O)[O-])=C(C[N+]3(C)CCCC3)CS[C@H]12)c1csc(N)n1
Description: as §1

[4] = substrate: Nc1nc(/C(=N/O)C(=O)N[C@@H]2C(=O)N3C(C(=O)O)=C(/C=C4\CCN([C@@H]5CCNC5)C4=O)CS[C@H]23)ns1
Description: as §1

[5] = substrate: O=C(Cc1cccs1)N[C@@H]1C(=O)N2C(C(=O)O)=C(/C=C/c3ccc([N+](=O)[O-])cc3[N+](=O)[O-])CS[C@H]12
Description: as §1

[6] = substrate: O=C(Cc1cccs1)N[C@@H]1C(=O)N2C(C(=O)[O-])=C(C[n+]3ccccc3)CS[C@H]12
Description: as §1

[7] = substrate: CC(C)(O/N=C(\C(=O)N[C@@H]1C(=O)N2C(C(=O)[O-])=C(C[n+]3ccccc3)CS[C@H]12)c1csc(N)n1)C(=O)O; remark: listed apart in the source
Description: (§2) Ratio of Kcat to Km of Enterobacter cloacae 4092 AmpC (E2) assessed as drug hydrolysis by spectrophotometry

[8] = substrate: CC1(C)S[C@@H]2[C@H](NC(=O)Cc3ccccc3)C(=O)N2[C@H]1C(=O)O; remark: listed apart in the source
Description: as §2

[9] = substrate: Nc1nc(/C(=N/O)C(=O)N[C@@H]2C(=O)N3C(C(=O)O)=C(/C=C4\CCN([C@@H]5CCNC5)C4=O)CS[C@H]23)ns1; remark: listed apart in the source
Description: as §2

[10] = substrate: CC(C)(O/N=C(\C(=O)N[C@@H]1C(=O)N2C(C(=O)[O-])=C(C[n+]3ccccc3)CS[C@H]12)c1csc(N)n1)C(=O)O; remark: listed apart in the source
Description: (§3) Activity of Enterobacter cloacae 4080 AmpC (P99) assessed as drug hydrolysis by spectrophotometry

[11] = substrate: CC1(C)S[C@@H]2[C@H](NC(=O)Cc3ccccc3)C(=O)N2[C@H]1C(=O)O; remark: listed apart in the source
Description: as §3

[12] = substrate: CO/N=C(\C(=O)N[C@@H]1C(=O)N2C(C(=O)[O-])=C(C[N+]3(C)CCCC3)CS[C@H]12)c1csc(N)n1; remark: listed apart in the source
Description: as §3

[13] = substrate: Nc1nc(/C(=N/O)C(=O)N[C@@H]2C(=O)N3C(C(=O)O)=C(/C=C4\CCN([C@@H]5CCNC5)C4=O)CS[C@H]23)ns1; remark: listed apart in the source
Description: as §3

[14] = substrate: O=C(Cc1cccs1)N[C@@H]1C(=O)N2C(C(=O)[O-])=C(C[n+]3ccccc3)CS[C@H]12; remark: listed apart in the source
Description: as §3

[15] = substrate: CC(C)(O/N=C(\C(=O)N[C@@H]1C(=O)N2C(C(=O)[O-])=C(C[n+]3ccccc3)CS[C@H]12)c1csc(N)n1)C(=O)O; remark: listed apart in the source
Description: (§4) Ratio of Kcat to Km of Enterobacter cloacae 4080 AmpC (P99) assessed as drug hydrolysis by spectrophotometry

[16] = substrate: CC1(C)S[C@@H]2[C@H](NC(=O)Cc3ccccc3)C(=O)N2[C@H]1C(=O)O; remark: listed apart in the source
Description: as §4

[17] = substrate: CO/N=C(\C(=O)N[C@@H]1C(=O)N2C(C(=O)[O-])=C(C[N+]3(C)CCCC3)CS[C@H]12)c1csc(N)n1; remark: listed apart in the source
Description: as §4

[18] = substrate: Nc1nc(/C(=N/O)C(=O)N[C@@H]2C(=O)N3C(C(=O)O)=C(/C=C4\CCN([C@@H]5CCNC5)C4=O)CS[C@H]23)ns1; remark: listed apart in the source
Description: as §4

[19] = substrate: O=C(Cc1cccs1)N[C@@H]1C(=O)N2C(C(=O)[O-])=C(C[n+]3ccccc3)CS[C@H]12; remark: listed apart in the source
Description: as §4

[20] = substrate: CC(C)(O/N=C(\C(=O)N[C@@H]1C(=O)N2C(C(=O)[O-])=C(C[n+]3ccccc3)CS[C@H]12)c1csc(N)n1)C(=O)O; remark: listed apart in the source
Description: (§5) Activity of Enterobacter cloacae 908R AmpC assessed as drug hydrolysis by spectrophotometry

[21] = substrate: CC1(C)S[C@@H]2[C@H](NC(=O)Cc3ccccc3)C(=O)N2[C@H]1C(=O)O; remark: listed apart in the source
Description: as §5

[22] = substrate: CO/N=C(\C(=O)N[C@@H]1C(=O)N2C(C(=O)[O-])=C(C[N+]3(C)CCCC3)CS[C@H]12)c1csc(N)n1; remark: listed apart in the source
Description: as §5

[23] = substrate: Nc1nc(/C(=N/O)C(=O)N[C@@H]2C(=O)N3C(C(=O)O)=C(/C=C4\CCN([C@@H]5CCNC5)C4=O)CS[C@H]23)ns1; remark: listed apart in the source
Description: as §5

[24] = substrate: O=C(Cc1cccs1)N[C@@H]1C(=O)N2C(C(=O)[O-])=C(C[n+]3ccccc3)CS[C@H]12; remark: listed apart in the source
Description: as §5

B1: Beta-lactamase (Enterobacter cloacae), P05364 (protein)
chain: MMRKSLCCALLLGISCSALATPVSEKQLAEVVANTITPLMKAQSVPGMAVAVIYQGKPHYYTFGKADIAANKPVTPQTLFELGSISKTFTGVLGGDAIARGEISLDDAVTRYWPQLTGKQWQGIRMLDLATYTAGGLPLQVPDEVTDNASLLRFYQNWQPQWKPGTTRLYANASIGLFGALAVKPSGMPYEQAMTTRVLKPLKLDHTWINVPKAEEAHYAWGYRDGKAVRVSPGMLDAQAYGVKTNVQDMANWVMANMAPENVADASLKQGIALAQSRYWRIGSMYQGLGWEMLNWPVEANTVVEGSDSKVALAPLPVAEVNPPAPPVKASWVHKTGSTGGFGSYVAFIPEKQIGIVMLANTSYPNPARVEAAYHILEALQ
For B1, the Km [1] was 110 µM, the kcat [1] was 0.16 s⁻¹ and the Km [2] was 8.3 µM. It also gave a kcat [2] of 65 s⁻¹, a Km [3] of over 630 µM and a kcat [3] of under 0.021 s⁻¹. It also gave a Km [4] of 26 µM, a kcat [4] of under 0.057 s⁻¹ and a Km [5] of 56 µM. It also gave a kcat [5] of 570 s⁻¹, a Km [6] of 480 µM and a kcat [6] of 690 s⁻¹. It also gave a kcat/Km [7] of 1500 M⁻¹ s⁻¹, a kcat/Km [8] of 7.8e+06 M⁻¹ s⁻¹ and a kcat/Km [9] of under 2200 M⁻¹ s⁻¹. For the same protein, the Km [10] was 2.9 µM, the kcat [10] was 0.021 s⁻¹ and the Km [11] was 4.7 µM. For the same protein, the kcat [11] was 32 s⁻¹, the Km [12] was 67 µM and the kcat [12] was 0.27 s⁻¹. The Km [13] was 9.4 µM, the kcat [13] was 0.21 s⁻¹ and the Km [14] was 330 µM. For the same protein, the kcat [14] was 2500 s⁻¹, the kcat/Km [15] was 7200 M⁻¹ s⁻¹ and the kcat/Km [16] was 6.8e+06 M⁻¹ s⁻¹. The kcat/Km [17] was 4000 M⁻¹ s⁻¹, the kcat/Km [18] was 22000 M⁻¹ s⁻¹ and the kcat/Km [19] was 7.6e+06 M⁻¹ s⁻¹. For the same protein, the Km [20] was 3.5 µM, the kcat [20] was 2.3 s⁻¹ and the Km [21] was 6 µM. The kcat [21] was 53 s⁻¹, the Km [22] was 16 µM and the kcat [22] was 0.82 s⁻¹. The Km [23] was 12 µM, the kcat [23] was 0.45 s⁻¹ and the Km [24] was 360 µM. It also gave a kcat [24] of 3200 s⁻¹.

Reference: ChEMBL document CHEMBL1143427, “Interactions of ceftobiprole with beta-lactamases from molecular classes A to D” (Antimicrob Agents Chemother, 2007)
